Experimental data published in patent JP2006342173A.

Tests used:
[1] = target: ヒトCD40 (human CD40 expressed on cells) (human) (UniProt P25942); assay: cell-based or functional assay
[2] = target: ヒトCD40ヒトFC (human CD40 extracellular region fused to human IgG1 FC) (human) (UniProt P25942); assay: SPR, BIAcore 2000; CD40 human FC immobilised on CM5; control IgG added first, then soluble CD40L 10 ug/ml; difference before and after CD40L

Row | Substance | 扁桃腺B細胞の増殖抑制 ([3H]チミジン; flag標識CD40L+エンハンサー抗体刺激) [1] | CD40Lの結合量 (RU) [2]
1 | 5D12抗体 (mouse anti-human CD40 antibody, ATCC No.HB-11339) | 50% | 
2 | 可溶性CD40リガンド (soluble CD40 ligand, FLAG-tagged, ALEXIS CORPORATION) (from UniProt P29965 116-261) |  | 100 RU
